Positions of bridges follow the written chain, without caps; N, C: chain ends. Non-standard residues stand in square brackets, D forms with d. Primed or numbered codes have the meaning given here. Chains are numbered I, II in the order given. No end group written: not given here. *: point of attachment. FA2″ = lipid moiety from Br-FA2: acetamide, two PEG2-propionic acid units, Lys and octadecanedioic acid; X1 = O=C(O)CCCCCCCCCCCCCCCCC(=O)N[C@@H](CCCCNC(=O)CCOCCOCCNC(=O)CCOCCOCCNC(=O)C*)C(=O)O; X2 = O=C(O)CCCCCCCCCCCCCCCCC(=O)N[C@@H](CCCCn1cc(COCCOCCOCCOCCOCCNC(=O)C*)nn1)C(=O)O; X3 = CCCCCCCCCCCCCCCCCC(=O)N[C@@H](CCCCNC(=O)CCOCCOCCOCCOCCOCCNC(=O)C*)C(=O)O; X4 = CCCCCCCCCCCCCC(=O)N[C@@H](CCCCNC(=O)CCOCCOCCOCCOCCOCCNC(=O)C*)C(=O)O; FA183 = acetamide-PEG5-Lys-octadecanedioic acid; ALK = (PEG)5-bromo-alkyne, S-alkylating Cys; FA182 = acetamide-PEG5-Lys-myristic acid; FA186 = acetamide-PEG5-Lys-stearic acid; pGlu = O=C1CC[C@@H](C(=O)O)N1; FA155 = not defined here; FA2 = not defined here
T1: LGR7 (Homo sapiens, UniProt Q9HBX9)
T1 construct: expressed in transfected cells; host or cells: HEK293T cells stably expressing recombinant LGR7, transduced with CRE-Luc lentivirus
T1 sequence (Q9HBX9 1-757): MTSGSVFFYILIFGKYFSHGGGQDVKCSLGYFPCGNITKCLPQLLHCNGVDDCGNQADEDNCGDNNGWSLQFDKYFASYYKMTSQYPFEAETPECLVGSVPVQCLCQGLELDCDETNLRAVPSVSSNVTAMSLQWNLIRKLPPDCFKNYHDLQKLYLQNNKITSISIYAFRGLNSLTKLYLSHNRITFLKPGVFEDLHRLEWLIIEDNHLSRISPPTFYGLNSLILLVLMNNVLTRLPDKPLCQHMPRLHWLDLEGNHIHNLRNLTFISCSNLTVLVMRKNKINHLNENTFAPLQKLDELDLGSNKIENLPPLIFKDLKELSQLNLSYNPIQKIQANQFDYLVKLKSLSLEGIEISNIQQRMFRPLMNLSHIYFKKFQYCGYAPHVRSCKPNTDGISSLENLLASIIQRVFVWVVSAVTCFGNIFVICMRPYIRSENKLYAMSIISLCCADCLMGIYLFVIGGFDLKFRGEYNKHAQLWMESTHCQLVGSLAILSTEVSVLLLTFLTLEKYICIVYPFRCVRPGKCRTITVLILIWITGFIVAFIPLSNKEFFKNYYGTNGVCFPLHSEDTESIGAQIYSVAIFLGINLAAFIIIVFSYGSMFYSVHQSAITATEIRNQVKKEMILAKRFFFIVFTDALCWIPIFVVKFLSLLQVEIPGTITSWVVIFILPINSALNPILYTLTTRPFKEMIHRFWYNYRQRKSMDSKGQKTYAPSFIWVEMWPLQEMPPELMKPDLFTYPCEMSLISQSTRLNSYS

T2: LGR7 (relaxin 2 receptor), recombinant, stably expressed in HEK293T cells with a CRE-Luc reporter (UniProt Q9HBX9 1-757, limits assumed)
T2 sequence (looked up): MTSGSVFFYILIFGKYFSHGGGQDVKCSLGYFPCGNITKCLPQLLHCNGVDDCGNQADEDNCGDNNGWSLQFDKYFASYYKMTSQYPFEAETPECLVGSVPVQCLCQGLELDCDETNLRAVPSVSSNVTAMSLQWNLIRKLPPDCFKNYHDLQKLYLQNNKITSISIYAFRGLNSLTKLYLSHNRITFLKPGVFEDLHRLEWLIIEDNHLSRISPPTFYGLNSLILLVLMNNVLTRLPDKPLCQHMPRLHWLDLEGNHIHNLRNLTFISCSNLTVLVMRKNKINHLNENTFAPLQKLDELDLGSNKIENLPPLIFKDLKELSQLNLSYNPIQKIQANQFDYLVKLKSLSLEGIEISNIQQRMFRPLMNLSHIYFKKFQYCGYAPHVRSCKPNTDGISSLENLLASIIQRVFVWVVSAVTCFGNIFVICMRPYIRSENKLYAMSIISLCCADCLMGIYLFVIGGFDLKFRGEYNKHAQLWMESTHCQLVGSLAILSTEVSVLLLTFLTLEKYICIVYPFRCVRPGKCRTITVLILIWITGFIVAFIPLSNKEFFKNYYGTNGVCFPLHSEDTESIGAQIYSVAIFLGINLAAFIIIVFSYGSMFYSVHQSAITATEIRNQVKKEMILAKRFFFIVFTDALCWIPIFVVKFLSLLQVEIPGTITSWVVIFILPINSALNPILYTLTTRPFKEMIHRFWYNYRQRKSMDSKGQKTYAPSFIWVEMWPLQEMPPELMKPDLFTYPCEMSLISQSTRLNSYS


Assays:
[1] = Mouse in vivo PK study for half-life extension; parameters: species or system CD1 female mice; details: 0.3 mg/kg in NH4Ac buffer, plasma levels by cell-based reporter gene assay; for half-life: female, CD1, sc
Description: Lipid conjugated relaxin or other therapeutic agents were dosed in mice using sc, po, iv dosing. Plasma levels of TA were determined by LGR7 activation at different time points (e.g., i.v. PK 5 min, 0.5h, 1h, 2h 4h, 8h, 24h, 48h).

LGR7 = biological target: T1, LGR7; assay: LGR7 CRE-Luc reporter gene assay (bioactivity of relaxin peptides); assay type: cell-based; details: HEK293T cells expressing LGR7 and CRE-Luc; for EC50: 18 hours incubation, luciferase readout; for Activity, fold drop compared to relaxin: fold drop relative to relaxin
Description: Relaxin 2 signals through leucine-rich repeat-containing GPCRs (i.e LGR7 (RFXR1)). The bioactivity of wild-type relaxin peptides was determined based on the stimulation of adenylate cyclase activity in HEK293T cells stably expressing recombinant LGR7. Stable LGR7 expressing cells were maintained in Dulbecco's modified Eagle's medium/F-12 media supplemented with 200 ng/ml Zeocin (Invitrogen). A cyclic AMP responsive element driven luciferase (CRE-Luc) reporter line was generated by lentiviral transduction of these LGR7 expressing HEK293T cells with CRE-Luc lentivirus (Qiagen) and selected with puromycine (2 μg/mL) for two weeks. A reporter gene assay was used to detect cAMP levels and LGR7 activation by relaxin.
Assay detail: HEK293T cells expressing LGR7 and CRE-Luc are seeded at a density of 5×10^3 cells per well in 50 μL of Dulbecco's modified Eagle's medium/F-12 medium containing 10% FBS in 384-well solid bottom white plates. Cells are pre-incubated at 37° C. overnight. Different concentrations of relaxin peptides (from 0.01 nM to 1000 nM) were added in triplicate, incubated for 18 hours and luciferase activity was detected by adding […], of Bright Glo (Promega). Luminescence was recorded on Envision (Perkin Elmer). EC50 is calculated after non-linear curve fitting (see FIG. 2 for relaxin H2 dose response curve).

in vivo = details: female, Dahl salt sensitive (DSS), rat, plasma, sc, 0.3 mg/kg
Description: To ensure accurate determination of active relaxins, plasma samples collected at intervals between 0-24 hrs were analyzed using the cell-based reporter gene assay.
Bioanalysis: Serum samples were diluted (1:100) in 5 point serial dilutions (1:3) and measured RXFP1 luciferase reporter activity following assay protocol. Injected peptide were used as a standard to get standard curve and obtained parameters for Bottom, Top, EC50, Hill Slope. Obtained activity values (RLU) were selected (in the linear range of the standard curve) were used to calculate the concentrations in plasma (nmol/L) using equation from standard curve (Y=Bottom+(Top-Bottom)/(1+10̂((Log IC50−X)*Hill Slope))

[2] = biological target: T2, LGR7 (relaxin 2 receptor), recombinant, …; assay: cell-based or functional assay

Molecule | Activity, fold drop compared to relaxin (LGR7) | half-life [1] | Activity, fold drop compared to relaxin [2] | LGR7 EC50 (pM), CRE-Luc reporter in HEK293T cells expressing LGR7 [2] | other results
Relaxin-wt [reference compound] |  |  |  |  | Half-life (mouse, sc) [1]: 0.7 h
Relaxin-B:D1A (chain 1 ASWMEEVIKLCGRELVRAQIAICGMSTWS; chain 2 QLYSALANKCCHVGCTKRSLARFC) [unconjugated relaxin analog with D1A substitution in the B chain] |  |  |  |  | Half-life (mouse, sc) [1]: 0.8 h
I: H-ASWMEEVIKLCGRELVRAQIAICGMSTWS / II: H-QC(X1)YSALANKCCHVGCTKRSLARFC (disulfide I:11-II:11, I:23-II:24, II:10-II:15) [compound 1] | 12 | 8 h |  |  | EC50 (LGR7): 0.21 nM
I: H-ASWMEEVIKLCGRELVRAQIAICGMSTWS / II: [pGlu]C(X1)YSALANKCCHVGCTKRSLARFC (disulfide I:11-II:11, I:23-II:24, II:10-II:15) [compound 5] | 12 |  |  |  | half-life (in vivo): 16 h
I: ASWMEEVIKLCGRELVRAQIAICGMSTWS / II: QC(X2)YSALANKCCHVGCTKRSLARFC (disulfide I:11-II:11, I:23-II:24, II:10-II:15) [compound 3] | 12 | 6 h |  |  | EC50 (LGR7): 0.21 nM
I: ASWMEEVIKLCGRELVRAQIAICGMSTWS / II: QC(X4)YSALANKCCHVGCTKRSLARFC (disulfide I:11-II:11, I:23-II:24, II:10-II:15) [compound 7] | 2 | 8 h |  |  | 
CC[C@H](C)[C@@H]1NC(=O)[C@H](C)NC(=O)[C@H]([C@@H](C)CC)NC(=O)[C@H](CCC(N)=O)NC(=O)[C@H](C)NC(=O)[C@H](CCCNC(=N)N)NC(=O)[C@H](C(C)C)NC(=O)[C@H](CC(C)C)NC(=O)[C@H](CCC(=O)O)NC(=O)[C@H](CCCNC(=N)N)NC(=O)CNC(=O)[C@@H](NC(=O)[C@H](CC(C)C)NC(=O)[C@H](CCCCN)NC(=O)[C@@H](NC(=O)[C@@H](NC(=O)[C@H](CCC(=O)O)NC(=O)[C@H](CCC(=O)O)NC(=O)[C@H](CCSC)NC(=O)[C@H](Cc2c[nH]c3ccccc23)NC(=O)[C@H](CO)NC(=O)[C@H](C)N)C(C)C)[C@@H](C)CC)CSSC[C@@H]2NC(=O)[C@@H](NC(=O)[C@H](CCCCN)NC(=O)[C@H](CC(N)=O)NC(=O)[C@H](C)NC(=O)[C@H](CC(C)C)NC(=O)[C@H](C)NC(=O)[C@H](CO)NC(=O)[C@H](Cc3ccc(O)cc3)NC(=O)[C@H](CSCC(=O)NCCOCCOCCOCCOCCOCCOCCOCCOCCC(=O)NCCCC[C@H](NC(=O)CCCCCCCCCCCCCCCCC(=O)O)C(=O)O)NC(=O)[C@@H](N)CCC(N)=O)CSSC[C@H](NC(=O)CNC(=O)[C@H](C(C)C)NC(=O)[C@H](Cc3c[nH]cn3)NC2=O)C(=O)N[C@@H]([C@@H](C)O)C(=O)N[C@@H](CCCCN)C(=O)N[C@@H](CCCNC(=N)N)C(=O)N[C@@H](CO)C(=O)N[C@@H](CC(C)C)C(=O)N[C@@H](C)C(=O)N[C@@H](CCCNC(=N)N)C(=O)N[C@@H](Cc2ccccc2)C(=O)N[C@H](C(=O)O)CSSC[C@@H](C(=O)NCC(=O)N[C@@H](CCSC)C(=O)N[C@@H](CO)C(=O)N[C@H](C(=O)N[C@@H](Cc2c[nH]c3ccccc23)C(=O)N[C@@H](CO)C(=O)O)[C@@H](C)O)NC1=O [compound 8] | 8 | 9.5 h |  |  | 
I: ASWMEEVIKLCGRELVRAQIAICGMSTWS / II: QC(X3)YSALANKCCHVGCTKRSLARFC (disulfide I:11-II:11, I:23-II:24, II:10-II:15) [compound 9] | 10 | 3.4 h |  |  | 
I: ASWMEEVIKLCGRELVRAQIAICGMSTWS / II: QLYSALANKCCHC(X1)GCTKRSLARFC (disulfide I:11-II:11, I:23-II:24, II:10-II:15) [compound 2] | 15 | 8 h |  |  | 
Relaxin-B:D1A-A:Q1-L2C-FA182 (ligand, ends and bridges not checked) chain 1: ASWMEEVIKLCGRELVRAQIAICGMSTWS chain 2: QC(FA182)YSALANKCCHVGCTKRSLARFC |  |  | 2 fold | 51 pM | 
Relaxin-wt (ligand, ends and bridges not checked; cysteine pairing not given here) chain 1: DSWMEEVIKLCGRELVRAQIAICGMSTWS chain 2: QLYSALANKCCHVGCTKRSLARFC |  |  | 1 fold | ~40 pM | 
Relaxin-B:D1A (ligand, ends and bridges not checked; cysteine pairing not given here) chain 1: ASWMEEVIKLCGRELVRAQIAICGMSTWS chain 2: QLYSALANKCCHVGCTKRSLARFC |  |  | 1 fold | 45 pM | 
Relaxin-B:D1A-A:Q1-L2C-FA186 (ligand, ends and bridges not checked) chain 1: ASWMEEVIKLCGRELVRAQIAICGMSTWS chain 2: QC(FA186)YSALANKCCHVGCTKRSLARFC |  |  | 10 fold | 235 pM | 
Relaxin-B:D1A-A:Q1:V13C-FA2 (ligand, ends and bridges not checked) chain 1: ASWMEEVIKLCGRELVRAQIAICGMSTWS chain 2: QLYSALANKCCHC(FA2)GCTKRSLARFC |  |  | 15 fold | 250 pM | 
Relaxin-B:D1A-A:Q1-L2C-FA155 (ligand, ends and bridges not checked) chain 1: ASWMEEVIKLCGRELVRAQIAICGMSTWS chain 2: QC(FA155)YSALANKCCHVGCTKRSLARFC |  |  | 12 fold | 210 pM | 
Relaxin-B:D1A-A:Q1-L2C-FA183 (ligand, ends and bridges not checked) chain 1: ASWMEEVIKLCGRELVRAQIAICGMSTWS chain 2: QC(FA183)YSALANKCCHVGCTKRSLARFC |  |  | 8 fold | 174 pM | 
Relaxin-B:D1A-A:Q1-L2C-FA2 (ligand, ends and bridges not checked) chain 1: ASWMEEVIKLCGRELVRAQIAICGMSTWS chain 2: QC(FA2″)YSALANKCCHVGCTKRSLARFC |  |  | 12 fold | 210 pM | 
Relaxin-B:D1A-A:Q1-L2C-ALK (ligand, ends and bridges not checked) chain 1: ASWMEEVIKLCGRELVRAQIAICGMSTWS chain 2: QC(ALK)YSALANKCCHVGCTKRSLARFC |  |  | 1 fold | 17 to 50 pM | 
Relaxin-B:D1A-A:pQ1-L2C-FA2 (ligand, pyroglutamate (pQ) at position 1; Cys 2 S-alkylated with FA2 (from Br-FA2, Example 6)) chain 1: ASWMEEVIKLCGRELVRAQIAICGMSTWS chain 2: XCYSALANKCCHVGCTKRSLARFC |  |  | 12 fold | 350 pM | 

From patent US20180207276A1, “MODIFIED THERAPEUTIC AGENTS AND COMPOSITIONS THEREOF” (THE CALIFORNIA INSTITUTE FOR BIOMEDICAL RESEARCH, priority 2015, published 2018)
